Square brackets hold non-standard residues; d marks the D form. Ends that are not written are not given here. dPhe(4-NO2) = N[C@H](Cc1ccc([N+](=O)[O-])cc1)C(=O)O; dPhe(F5) = N[C@H](Cc1c(F)c(F)c(F)c(F)c1F)C(=O)O; dBpa = N[C@H](Cc1ccc(C(=O)c2ccccc2)cc1)C(=O)O; dCha = N[C@H](CC1CCCCC1)C(=O)O Some results are limits rather than exact numbers.

What all share (assay): cell-based or functional assay
Assay [1] concerns the target E. Coli derived recombinant human full length Chk2 fused with GST (human, UniProt O96017 1-543).
The target of assay [2] is T1, baculovirus derived recombinant human full length Chk1 with histidine tag (human, UniProt O14757 1-476).
T1 sequence: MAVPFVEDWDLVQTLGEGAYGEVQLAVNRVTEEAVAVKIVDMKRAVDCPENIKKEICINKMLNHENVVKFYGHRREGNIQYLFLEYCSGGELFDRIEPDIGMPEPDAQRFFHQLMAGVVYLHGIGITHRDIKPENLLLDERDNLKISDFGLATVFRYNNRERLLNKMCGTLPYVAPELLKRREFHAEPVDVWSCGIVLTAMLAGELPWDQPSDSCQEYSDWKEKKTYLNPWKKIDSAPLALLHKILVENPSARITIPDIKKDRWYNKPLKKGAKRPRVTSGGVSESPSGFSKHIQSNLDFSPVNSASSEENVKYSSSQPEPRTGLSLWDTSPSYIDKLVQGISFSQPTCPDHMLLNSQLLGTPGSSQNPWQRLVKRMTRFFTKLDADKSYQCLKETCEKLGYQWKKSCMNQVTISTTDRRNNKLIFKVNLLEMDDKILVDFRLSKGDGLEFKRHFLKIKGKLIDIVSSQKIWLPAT

A further assay concerns the target purified CHK2 kinase.
The target of another assay is PKA.

Chain of E. Coli derived recombinant human full length Chk2 fused with GST (O96017 whole entry, the tested form may be a part): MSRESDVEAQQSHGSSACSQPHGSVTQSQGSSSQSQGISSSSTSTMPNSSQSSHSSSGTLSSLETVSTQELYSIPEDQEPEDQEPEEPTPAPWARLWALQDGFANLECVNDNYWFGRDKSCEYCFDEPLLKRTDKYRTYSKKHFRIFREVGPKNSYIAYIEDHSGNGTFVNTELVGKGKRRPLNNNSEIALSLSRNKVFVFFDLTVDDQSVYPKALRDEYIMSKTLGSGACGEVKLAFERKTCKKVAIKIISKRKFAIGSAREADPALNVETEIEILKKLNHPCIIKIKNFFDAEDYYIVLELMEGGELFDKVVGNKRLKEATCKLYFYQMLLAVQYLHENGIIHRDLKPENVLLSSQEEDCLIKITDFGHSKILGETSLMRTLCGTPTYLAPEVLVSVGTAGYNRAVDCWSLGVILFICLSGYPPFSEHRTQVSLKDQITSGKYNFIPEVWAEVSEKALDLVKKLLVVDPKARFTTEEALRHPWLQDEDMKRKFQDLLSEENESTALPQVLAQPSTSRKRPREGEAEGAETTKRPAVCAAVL

As to [dBpa][dD][dS][dW][dS][dPhe(F5)][dCha][dR][dR][dR][dQ][dR][dR] [CBP505], the entries for the “Kinase inhibition (phosphorylation of serine 216 on GST-Cdc25C 167-267, enzyme linked immune assay)” value in assay [1] and in assay [2] were > 100 and 63.4, respectively.
[dBpa][dS][dW][dS][dPhe(F5)][dCha][dR][dR][dR][dQ][dR][dR] [CBP501]: the figures for the “Kinase inhibition (phosphorylation of serine 216 on GST-Cdc25C 167-267, enzyme linked immune assay)” value in assay [1] and in assay [2] were 18.6 and 7.9, respectively.

B1: CBP440 (peptide)
peptide: YGRKKRRQRRRXFXYY
modifications: (l-Tyr)(l-Gly)(l-Arg)(l-Lys)(l-Lys)(l-Arg)(l-Arg)(l-Gln)(l-Arg)(l-Arg)(l-Arg)(l-Cha)(l-Phe-2,3,4,5,6-F)(l-aminoundecanoic acid)(l-Tyr)(l-Tyr): Cha = cyclohexyl-alanine; Phe-2,3,4,5,6-F = pentafluoro-phenylalanine; aminoundecanoic acid spacer
For B1, the “IC50, kinase inhibition (PepTag Non-Radioactive Protein Kinase Assay)” value was 8 µM with purified CHK2 kinase and 180 µM with PKA.
Take [dY][dY][dS]G[dS][dR][dPhe(F5)][dCha][dR][dR][dR][dQ][dR][dR][dK][dK][dR]G[dY] [CBP450]: the “IC50, kinase inhibition (PepTag Non-Radioactive Protein Kinase Assay)” value with purified CHK2 kinase was 10 µM; with PKA it was > 400 µM.
As to [dBpa][dS][dW][dS][dPhe(4-NO2)][dCha][dR][dR][dR][dQ][dR][dR] [CBP603], the “Kinase inhibition (phosphorylation of serine 216 on GST-Cdc25C 167-267, enzyme linked immune assay)” value was 18.1 in assay [1] and 15.5 in assay [2].
In the same order, the values of [dY][dBpa][dS][dW][dS][dPhe(F5)][dCha][dR][dR][dR][dQ][dR][dR] [CBP500] are 8 and 5.6.

Values taken from US20170112894A1 (CANBAS, published 2017).
